In experiment [1] the target is T1, human C1s (human).
T1 chain: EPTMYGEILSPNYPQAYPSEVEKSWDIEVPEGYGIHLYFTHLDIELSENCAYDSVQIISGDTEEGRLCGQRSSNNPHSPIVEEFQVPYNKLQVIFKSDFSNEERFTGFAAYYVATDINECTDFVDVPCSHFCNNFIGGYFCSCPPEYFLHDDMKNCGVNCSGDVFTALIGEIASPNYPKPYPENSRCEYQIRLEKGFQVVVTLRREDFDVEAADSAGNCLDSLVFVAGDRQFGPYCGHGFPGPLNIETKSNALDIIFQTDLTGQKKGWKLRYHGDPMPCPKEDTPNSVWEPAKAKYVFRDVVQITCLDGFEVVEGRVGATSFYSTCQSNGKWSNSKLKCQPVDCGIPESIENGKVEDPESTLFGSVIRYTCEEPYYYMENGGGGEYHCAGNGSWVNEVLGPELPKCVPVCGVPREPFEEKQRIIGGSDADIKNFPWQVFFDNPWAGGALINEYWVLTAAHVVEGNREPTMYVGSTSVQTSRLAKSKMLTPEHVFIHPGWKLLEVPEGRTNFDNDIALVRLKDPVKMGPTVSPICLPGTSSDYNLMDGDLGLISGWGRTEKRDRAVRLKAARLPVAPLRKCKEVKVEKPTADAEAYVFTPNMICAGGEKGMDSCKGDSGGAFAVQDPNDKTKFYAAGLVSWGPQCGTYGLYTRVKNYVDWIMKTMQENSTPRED
Description: SPR pH 5.8 37C.

Experiment [2] addresses T1, human C1s. The experiment can be described thus: SPR pH 5.8 37C.
Experiment [3] has as its target T1, human C1s. Description: SPR pH 7.4 37C.
In experiment [4] the target is T1, human C1s. The experiment can be described thus: SPR pH 7.4 37C.
The target in experiment [5] is T1, human C1s. Description: SPR pH 7.4 37C.
Experiment [6] deals with T1, human C1s. Description: SPR pH 5.8 low Ca 37C.
Experiment [7] has as its target T1, human C1s. Description: SPR pH 5.8 37C, low response.
Experiment [8] has as its target T1, human C1s. Description: SPR pH 7.4 37C, low response.
The target of experiment [9] is T1, human C1s. The experiment can be described thus: SPR pH 5.8 low Ca 37C, low response.
Experiment [10] addresses T1, human C1s. The experiment can be described thus: SPR pH 7.4 37C.
The target of experiment [11] is T1, human C1s. The experiment can be described thus: SPR pH 5.8 37C.
In experiment [12] the target is T1, human C1s. The experiment can be described thus: SPR pH 5.8 37C.
Experiment [13] has as its target T1, human C1s. The experiment can be described thus: SPR pH 7.4 37C.
For experiment [14], the target named is T1, human C1s. Description: SPR pH 5.8 low Ca 37C, low response.
Experiment [15] concerns the target T1, human C1s. The experiment can be described thus: SPR pH 5.8 37C, low response.

B1: IPN009VH2/IPN009VK3 (antibody, V domains shown)
VH: EVMLVESGGGLVKPGGSLRLSCAASGFTFSNYAMSWVRQAPGKGLEWVATISSGGSHTYYLDSVKGRFTISRDNSKDTLYLQMNSLRAEDTALYYCARLFTGYAMDYWGQGTLVTVSS
VL: QIVLTQSPATLSLSPGERATLSCTASSSVSSSYLHWYQQKPGKAPKLWIYSTSNLASGVPSRFSGSGSGTDYTLTISSLQPEDFATYYCHQYYRLPPITFGQGTKLEIK
A word on the Kd: it is the concentration at which binding is half-saturated. Take B1: the Kd in the experiment with human C1s [1] was 0.164 nM; with human C1s [2], 0.449 nM; in the experiment with human C1s [3] it was 1.24 nM; with human C1s [4], 1.19 nM; with human C1s [5] it was 0.824 nM; in the experiment with human C1s [6], 3.37 nM.

B2: IPN009VH2/IPN93L0031 (antibody, V domains shown)
VH: EVMLVESGGGLVKPGGSLRLSCAASGFTFSNYAMSWVRQAPGKGLEWVATISSGGSHTYYLDSVKGRFTISRDNSKDTLYLQMNSLRAEDTALYYCARLFTGYAMDYWGQGTLVTVSS
VL: QIVLTQSPATLSLSPGERATLSCTASSSVSSSYLHWYQQKPGKAPKLWIYSTSNLASGVPSRFSGSGSGTDYTLTISSLQPEDFATYYCHQYHRHHPITFGQGTKLEIK
Take B2: the Kd with human C1s [7] was found to be 23.9 nM; in the experiment with human C1s [8] it was 0.168 nM; with human C1s [9], 4960 nM.

B3: IPN92H0012/IPN009VK3 (antibody, V domains shown)
VH: EVMLVESGGGLVKPGGSLRLSCAASGFTFSNYAMSWVRQAPGKGLEWVATHSSGGSHTYYLDSVKGRFTISRDNSKDTLYLQMNSLRAEDTALYYCARLFTGYAMDYWGQGTLVTVSS
VL: QIVLTQSPATLSLSPGERATLSCTASSSVSSSYLHWYQQKPGKAPKLWIYSTSNLASGVPSRFSGSGSGTDYTLTISSLQPEDFATYYCHQYYRLPPITFGQGTKLEIK
B3 returned a Kd with human C1s [3] of 10.5 nM.

B4: IPN009VH2/IPN93L0024 (antibody, V domains shown)
VH: EVMLVESGGGLVKPGGSLRLSCAASGFTFSNYAMSWVRQAPGKGLEWVATISSGGSHTYYLDSVKGRFTISRDNSKDTLYLQMNSLRAEDTALYYCARLFTGYAMDYWGQGTLVTVSS
VL: QIVLTQSPATLSLSPGERATLSCTASSSVSSSYLHWYQQKPGKAPKLWIYSTSNLASGVPSRFSGSGSGTDYTLTISSLQPEDFATYYCHQYYRLHPITFGQGTKLEIK
Consider B4, for which the Kd was determined as 3.87 nM in the experiment with human C1s [1]; 4.32 nM with human C1s [2]; 3.4 nM in the experiment with human C1s [4]; 2.46 nM with human C1s [5]; 22.3 nM with human C1s [6].

B5: IPN92H0033/IPN009VK3 (antibody, V domains shown)
VH: EVMLVESGGGLVKPGGSLRLSCAASGFTFSNYAMSWVRQAPGKGLEWVATISSGGSHTYYLDSVKGRFTISRDNSKDTLYLQMNSLRAEDTALYYCARLFTGHAMDYWGQGTLVTVSS
VL: QIVLTQSPATLSLSPGERATLSCTASSSVSSSYLHWYQQKPGKAPKLWIYSTSNLASGVPSRFSGSGSGTDYTLTISSLQPEDFATYYCHQYYRLPPITFGQGTKLEIK
With B5, the dissociation constant (Kd) was 0.515 nM in the experiment with human C1s [1]; 0.931 nM with human C1s [2]; 1.01 nM in the experiment with human C1s [4]; 0.79 nM with human C1s [5]; 9.57 nM in the experiment with human C1s [6].

B6: IPN92H0033/IPN93L0021 (antibody, V domains shown)
VH: EVMLVESGGGLVKPGGSLRLSCAASGFTFSNYAMSWVRQAPGKGLEWVATISSGGSHTYYLDSVKGRFTISRDNSKDTLYLQMNSLRAEDTALYYCARLFTGHAMDYWGQGTLVTVSS
VL: QIVLTQSPATLSLSPGERATLSCTASSSVSSSYLHWYQQKPGKAPKLWIYSTSNLASGVPSRFSGSGSGTDYTLTISSLQPEDFATYYCHQHYRLPPITFGQGTKLEIK
Turning to B6, the Kd was 1.92 nM in the experiment with human C1s [10], 5.01 nM in the experiment with human C1s [11] and 7.59 nM with human C1s [9].

B7: IPN92H0033/IPN93L0031 (antibody, V domains shown)
VH: EVMLVESGGGLVKPGGSLRLSCAASGFTFSNYAMSWVRQAPGKGLEWVATISSGGSHTYYLDSVKGRFTISRDNSKDTLYLQMNSLRAEDTALYYCARLFTGHAMDYWGQGTLVTVSS
VL: QIVLTQSPATLSLSPGERATLSCTASSSVSSSYLHWYQQKPGKAPKLWIYSTSNLASGVPSRFSGSGSGTDYTLTISSLQPEDFATYYCHQYHRHHPITFGQGTKLEIK
As for B7, the values for the Kd with human C1s [7], with human C1s [8] and with human C1s [9] were 2.59 nM, 3.59 nM and 13.9 nM, respectively.

B8: IPN92H0307/IPN93L0058 (antibody, V domains shown)
VH: EVMLVESGGGLVKPGGSLRLSCAASGFEFENYAMSWVRQAPGKGLEWVATISSGGSHTYELDSVDGRFTISRDNSKDTLYLQMNSLRAEDTALYYCARLFTKHAMDYWGQGTLVTVSS
VL: QIVLTQSPATLSLSPGERATLSCTASSEVSSSYLHWYQQKPGKAPKLWIYSTSNLASGVPSRFSGSGSGTDYTLTISSLQPEDFATYYCHQYYRLHPITFGQGTKLEIK
Consider B8, for which the dissociation constant (Kd) was determined as 19.5 nM with human C1s [12]; 38.1 nM with human C1s [2]; 1.93 nM with human C1s [13]; 1.34 nM in the experiment with human C1s [4]; 4.95 nM in the experiment with human C1s [14].

B9: IPN92H0288/IPN93L0211 (antibody, V domains shown)
VH: EVMLVESGGGLVKPGGSLRLSCAASGFTFSNYAMSWVRQAPGKGLEWVATISSGGSHTYELDSVDGRFTISRDNSKDTLYLQMNSLRAEDTALYYCARLFTKHAMDYWGQGTLVTVSS
VL: QIVLTQSPATLSLSPGERATLSCTASSEVSESYLHWYQQKPGKAPKLWIYSTSNLASGVPSRFSGSGSGTDYTLTISSLQPEDFATYYCHQYYRLHPITFGQGTKLEIK
In the case of B9, the Kd with human C1s [2] is 83.1 nM; with human C1s [13], 1.67 nM; with human C1s [4], 1.11 nM; in the experiment with human C1s [15], 16.5 nM; with human C1s [14] it was 10.4 nM.

B10: IPN92H0033/IPN93L0024 (antibody, V domains shown)
VH: EVMLVESGGGLVKPGGSLRLSCAASGFTFSNYAMSWVRQAPGKGLEWVATISSGGSHTYYLDSVKGRFTISRDNSKDTLYLQMNSLRAEDTALYYCARLFTGHAMDYWGQGTLVTVSS
VL: QIVLTQSPATLSLSPGERATLSCTASSSVSSSYLHWYQQKPGKAPKLWIYSTSNLASGVPSRFSGSGSGTDYTLTISSLQPEDFATYYCHQYYRLHPITFGQGTKLEIK
Take B10: the Kd with human C1s [10] worked out at 2.9 nM; with human C1s [2], 11.9 nM; with human C1s [11], 8.66 nM; with human C1s [4] it was 2.51 nM; with human C1s [9] it was 5.3 nM.

B11: IPN009VH2/IPN93L0021 (antibody, V domains shown)
VH: EVMLVESGGGLVKPGGSLRLSCAASGFTFSNYAMSWVRQAPGKGLEWVATISSGGSHTYYLDSVKGRFTISRDNSKDTLYLQMNSLRAEDTALYYCARLFTGYAMDYWGQGTLVTVSS
VL: QIVLTQSPATLSLSPGERATLSCTASSSVSSSYLHWYQQKPGKAPKLWIYSTSNLASGVPSRFSGSGSGTDYTLTISSLQPEDFATYYCHQHYRLPPITFGQGTKLEIK
On to B11, for which the Kd stood at 3.21 nM with human C1s [1]; 4.34 nM with human C1s [2]; 2.92 nM with human C1s [4]; 2.68 nM with human C1s [5]; 9.54 nM with human C1s [6].

B12: IPN92H0288/IPN93L0058 (antibody, V domains shown)
VH: EVMLVESGGGLVKPGGSLRLSCAASGFTFSNYAMSWVRQAPGKGLEWVATISSGGSHTYELDSVDGRFTISRDNSKDTLYLQMNSLRAEDTALYYCARLFTKHAMDYWGQGTLVTVSS
VL: QIVLTQSPATLSLSPGERATLSCTASSEVSSSYLHWYQQKPGKAPKLWIYSTSNLASGVPSRFSGSGSGTDYTLTISSLQPEDFATYYCHQYYRLHPITFGQGTKLEIK
B12: the Kd with human C1s [12] was 19.5 nM; with human C1s [2], 40.1 nM; in the experiment with human C1s [13] it was 0.838 nM; with human C1s [4], 0.611 nM; in the experiment with human C1s [14] it was 7.96 nM.

(Values after patent US12084513 (dated 2024).)
